We go through 42 substances from patent publication US20170166655A1.

What is called Kd is the free concentration of one partner at which half of the binding sites on the other are occupied at equilibrium, for simple one-to-one binding. Read a high Kd as weaker binding. By IC50 is commonly meant the concentration needed to halve the response being measured. Higher therefore signals a need for much substance.

The target in assay [1] is human V158 FcγRIIIa, extracellular region (human) (UniProt P08637). Kind of assay: SPR.
Assay [2] shares this target. As to the kind of experiment: AlphaScreen competition. (Bead proximity is the source of the signal in Alpha formats.)
Assay [3] deals with R131 FcγRIIa (human) (UniProt P12318). As to the kind of experiment: SPR.
For assay [4], the target named is V158 FcγRIIIa (human) (UniProt P08637). Kind of assay: SPR. A general note: Surface plasmon resonance follows binding to a sensor surface in real time, without labels.
Assay [5] addresses FcγRI (human) (UniProt P12314). Kind of assay: SPR.
Assay [6] addresses H131 FcγRIIa (human) (UniProt P12318). As to the kind of experiment: SPR.
In assay [7] the target is F158 FcγRIIIa (human) (UniProt P08637). As to the kind of experiment: SPR.
Assay [8] concerns the target FcγRIIb (human) (UniProt P31994). Kind of assay: SPR.
Assay [9] addresses human FcγRIIIa on human PBMC effector cells (human) (UniProt P08637). As to the kind of experiment: cell-based or functional assay.
The target in assay [10] is human F158 FcγRIIIa, extracellular region (human) (UniProt P08637). As to the kind of experiment: SPR.
The target is the same in assay [11]. As to the kind of experiment: AlphaScreen competition.

As to alemtuzumab IgG1 S267E (antibody), the Fold WT in assay [1] came to 2.62 fold.
Take trastuzumab IgG1 K334I (antibody): the Fold WT in [1] is 7.1 fold; in assay [2] it was 15.2 fold.
With alemtuzumab IgG1 E272H (antibody), in assay [1], the Fold WT is 384 fold.
IgG2_S239D/I332E/^V234L: the Kd in assay [3] was 27.8 nM; in [4] it was 33.7 nM; in assay [5], 0.634 nM; in [6], 29 nM; in assay [7], 96.2 nM; in [8], 95.8 nM.
In the case of alemtuzumab IgG1 K246H (antibody), the Fold WT in [1] is 22.4 fold.
Take alemtuzumab IgG1 S239E (antibody): the Fold WT in assay [1] worked out at 3.28 fold; in assay [2] it was 2.64 fold.
For the substance alemtuzumab IgG1 E283H (antibody), the Fold WT in [1] amounted to 2.31 fold.
Turning to IgG2_S239D/I332E/^P233L, the Kd amounted to 67.4 nM in [3]; 25.2 nM in assay [4]; 3.28 nM in assay [5]; 82.2 nM in [6]; 53.2 nM in [7]; 238 nM in assay [8].
On to IgG2_P233E/V234L/A235L/^235G/G327A, for which the Kd is 260 nM in assay [3]; 73.6 nM in [4]; 0.145 nM in assay [5]; 313 nM in assay [6]; 69400 nM in assay [7]; 663 nM in assay [8].
With alemtuzumab IgG1 T260H (antibody), in assay [1], the Fold WT was 1.86 fold.
For alemtuzumab IgG1 V264I/I332E (antibody), in [9], the ADCC EC50, DoHH-2 target cells, PBMCs V158/F158 FcγRIIIa amounted to 4 ng/mL; the ADCC Fold WT, DoHH-2 target cells, PBMCs V158/F158 FcγRIIIa came to 2.5 fold; the ADCC log(EC50), DoHH-2 target cells, PBMCs V158/F158 FcγRIIIa was 0.6 log(ng/ml). In assay [10], this substance yielded a Fold WT of 14 fold and a dissociation constant (Kd) of 52 nM. For the same substance, in [1], the Fold WT is 4 fold and the Kd came to 17 nM. In addition, in assay [11], the Fold WT amounted to 15.6 fold and the IC50 is 1.1 nM. In assay [2], this substance returned a Fold WT of 12.8 fold and an IC50 of 0.5 nM.
Substance alemtuzumab IgG1 E283L (antibody) came in with a Fold WT in assay [1] of 2.56 fold.
On to alemtuzumab IgG1 V264I (antibody), for which the dissociation constant (Kd) amounted to 550 nM in assay [10] and 64 nM in assay [1].
For the substance alemtuzumab IgG1 S304T (antibody), the Fold WT in [1] is 12.8 fold.
Regarding “alemtuzumab IgG1 N297D/A330Y/I332E (aglycosylated) (antibody)”, in assay [2], the fold of glycosylated WT alemtuzumab was 0.4 fold.
As for alemtuzumab IgG1 K326E (antibody), the Fold WT in assay [1] is 3.13 fold; in assay [2], 1.86 fold.
alemtuzumab IgG1 E258Y (antibody): the Fold WT in assay [1] turned out to be 1.77 fold.
With IgG2_S239D/I332E/^P233EL, the Kd in [3] is 64.2 nM; in [4], 21.6 nM; in assay [5], 1.94 nM; in [6] it was 71.8 nM; in assay [7], 59.6 nM; in assay [8], 264 nM.
With “trastuzumab IgG1 S239D/I332E/S298A (antibody)”, the Kd was 4.9 nM in assay [10] and 8.7 nM in [1].
For alemtuzumab IgG1 E272R (antibody), in [1], the Fold WT is 1.38 fold.
Consider alemtuzumab IgG1 E258H (antibody), for which the figures for the Fold WT in assay [1] and in assay [2] were 5.5 fold and 2.35 fold, respectively.
rituximab IgG1 WT (antibody): in [9], the ADCC EC50, FIG. 118b, WIL2-S target cells, human PBMCs came to 1.7 ng/mL; the ADCC EC50, FIG. 118c, PBMCs F158/F158 FcγRIIIa turned out to be 5.9 ng/mL; the ADCC log(EC50), FIG. 118b, WIL2-S target cells, human PBMCs was 0.23 log(ng/ml); the ADCC log(EC50), FIG. 118c, PBMCs F158/F158 FcγRIIIa is 0.77 log(ng/ml).
In the case of “alemtuzumab IgG1 S298A/E333A/K334A (antibody)”, the Kd is 156 nM in assay [10] and 39 nM in assay [1].
On to alemtuzumab IgG1 WT (antibody), for which the values for the Kd in [10] and in assay [1] were 730 nM and 68 nM, respectively.
“trastuzumab IgG1 S298A/E333A/K334A (antibody)”: in assay [9], the ADCC EC50, FIG. 117c, PBMCs F158/F158 FcγRIIIa stood at 0.2 ng/mL; the ADCC Fold WT, FIG. 117c, PBMCs F158/F158 FcγRIIIa turned out to be 3.6 fold; the ADCC log(EC50), FIG. 117c, PBMCs F158/F158 FcγRIIIa is -0.72 log(ng/ml).
For “rituximab IgG1 S298A/E333A/K334A (antibody)”, in assay [9], the ADCC EC50, FIG. 118b amounted to 0.37 ng/mL; the ADCC Fold WT, FIG. 118b stood at 4.6 fold; the ADCC log(EC50), FIG. 118b was -0.44 log(ng/ml).
As for alemtuzumab IgG1 R255Y (antibody), the Fold WT in [1] came to 1.41 fold.
With trastuzumab IgG1 I332D (antibody), the Fold WT in assay [1] was 2.57 fold; in assay [2] it was 19 fold.
For the substance “alemtuzumab IgG1 S239D/N297D/I332E (aglycosylated) (antibody)”, the fold of glycosylated WT alemtuzumab in assay [2] stood at 0.8 fold.
With trastuzumab IgG1 A330L/I332E (antibody), in assay [9], the ADCC EC50, FIG. 117b was 1.1 ng/mL; the ADCC Fold WT, FIG. 117b was 10.5 fold; the ADCC log(EC50), FIG. 117b was 0.04 log(ng/ml).
As to trastuzumab IgG1 A330Y/I332E (antibody), in assay [9], the ADCC EC50, FIG. 117b stood at 0.9 ng/mL; the ADCC Fold WT, FIG. 117b amounted to 12.8 fold; the ADCC log(EC50), FIG. 117b is -0.04 log(ng/ml).
In the case of trastuzumab IgG1 E283L (antibody), the results for the Fold WT in [1] and in assay [2] were 3.68 fold and 19.9 fold, respectively.
trastuzumab IgG1 E272H (antibody) registered a Fold WT in [1] of 0.65 fold.
For alemtuzumab IgG1 I332D (antibody), in assay [1], the Fold WT came to 11.2 fold.
For the substance alemtuzumab IgG1 V284E (antibody), the Fold WT in [1] is 1.51 fold.
With alemtuzumab IgG1 I332E (antibody), the values for the Kd in [10] and in assay [1] were 72 nM and 31 nM, respectively.
Regarding alemtuzumab IgG1 E272P (antibody), the Fold WT in assay [1] stood at 1.41 fold; in assay [2] it was 1.46 fold.
Regarding alemtuzumab IgG1 S239D/I332E (antibody), in assay [9], the ADCC EC50, DoHH-2 target cells, PBMCs V158/F158 FcγRIIIa amounted to 3 ng/mL; the ADCC Fold WT, DoHH-2 target cells, PBMCs V158/F158 FcγRIIIa turned out to be 3.3 fold; the ADCC log(EC50), DoHH-2 target cells, PBMCs V158/F158 FcγRIIIa was 0.49 log(ng/ml).
On to “IgG2_P233E/V234L/A235L/^235G/S239D/I332E/G327A”, for which the Kd came to 63.9 nM in assay [3], 127 nM in [6], 12.5 nM in [7] and 101 nM in assay [8].
Take alemtuzumab IgG1 S298A (antibody): the values for the Kd in assay [10] and in [1] were 285 nM and 52 nM, respectively.
Consider “IgG2_P233E/V234L/A235L/^235G/S239D/I332E”, for which the Kd in assay [3] amounted to 68.5 nM; in assay [4], 12.4 nM; in assay [5], 0.0908 nM; in assay [6], 68.3 nM; in assay [7], 50.2 nM; in assay [8], 84.2 nM.
The substance alemtuzumab IgG1 H268D (antibody) gave a Fold WT in assay [1] of 5.66 fold.
